Measured values taken from the RNAGym collection of RNA variant scans (doi:10.1093/molbev/msab373).

B1: Azoarcus group I ribozyme (parent)
chain: GUGCCUUGCGCCGGGAAACCACGCAAGGGAUGGUGUCAAAUUCGGCGAAACCUAAGCGCCCGCCCGGGCGUAUGGCAACGCCGAGCCAAGCUUCGGCGCCUGCGCCGAUGAAGGUGUAGAGACUAGACGGCACCCACCUAAGGCAAACGCUAUGGUGAAGGCAUAGUCCAGGGAGUGGCGAAAGUCACACAAACCGG

Variants of: B1
Experiment: reverse-splicing fitness (ratio to wild type); higher = more active; in vitro selection; Mg2+ level not given
Summary of the method: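 An in vitro group I ribozyme library with randomized positions was T7-transcribed and gel-purified. In triplicate, 10 pmol RNA in EPPS pH 7.5 was reacted with 50 pmoles of a 30-nt RNA substrate for 1 h at 37 °C across several added MgCl2 levels (1–48 mM), then stopped with EDTA. Products were reverse transcribed from a substrate-complementary primer, PCR-amplified and sequenced (HiSeq 4000). Fitness is a variant's read proportion after selection over that before, normalised to wild type.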

First: A111C A120U C150G C169A U176A
Second: A111C A120U C150G C169A U176C
The reverse-splicing fitness of the first is higher: 0.00683 for the first, 0.00504 for the second.

First: A111C A120U C150G C169A U176G
Second: A111C A120U C150G C169U U176C
The reverse-splicing fitness of the first is lower: 0.00363 for the first, 0.00564 for the second.

First: A111C A120U C150G C169U U176A
Second: A111C A120U C150G C169U U176G
The reverse-splicing fitness of the first is higher: 0.00446 for the first, 0.00276 for the second.

Going from A111C A145C C150A C169U U176A to A111C A145C C150A C169U U176C, the reverse-splicing fitness falls from 0.0151 to 0.0102.

Going from A111C A145C C150A C169U U176G to A111C A120U A145C C150A C169A U176C, the reverse-splicing fitness falls from 0.00658 to 0.00233.

Compared with A111C A120U A145C C150A C169A U176A, A111C A120U A145C C150A C169A U176G is lower in reverse-splicing fitness: 0.00259 for the first, 0.00226 for the second.

Going from A111C A120U A145C C150G C169A U176G to A111C A120U A145C C150G C169A U176C, the reverse-splicing fitness rises from 0.00224 to 0.00297.

Going from A111C A120U A145C C150G C169A U176A to A111C A120U C150A, the reverse-splicing fitness rises from 0.00246 to 0.0711.

First: A111C A120U C150G
Second: A111C A120U C150U
The reverse-splicing fitness of the first is lower: 0.0546 for the first, 0.416 for the second.

Compared with A111C A120U A145U C150U C169G, A111C A120U A145U C150U C169A is lower in reverse-splicing fitness: 0.0348 for the first, 0.00426 for the second.

Going from A111C A120U A145U C150U C169U to A111C A120U A145G C150G C169A, the reverse-splicing fitness falls from 0.0452 to 0.00873.

First: A111C A120U A145G C150G C169U
Second: A111C A120U A145G C150G C169G
The reverse-splicing fitness of the first is higher: 0.0135 for the first, 0.0117 for the second.

Compared with A111C A120U A145C C169U U176C, A111C A120U A145C C169U U176G is lower in reverse-splicing fitness: 0.0145 for the first, 0.00215 for the second.

Compared with A111C A120U A145C C169U U176A, A111C A120U C169G U176C is lower in reverse-splicing fitness: 0.0108 for the first, 0.00999 for the second.

Going from A111C A120U C169G U176G to A111C A120U C169G U176A, the reverse-splicing fitness rises from 0.00154 to 0.00529.

Going from A111C A120U A145U C150G C169U to A111C A120U A145U C150G C169G, the reverse-splicing fitness falls from 0.00794 to 0.00663.

First: A111C A120U A145U C150G C169A
Second: A111C A120U C150A C169A U176C
The reverse-splicing fitness of the first is lower: 0.00366 for the first, 0.00383 for the second.

Going from A111C A120U C150A C169A U176A to A111C A120U C150A C169A U176G, the reverse-splicing fitness falls from 0.00602 to 0.00239.

Going from A111C A145C C150A C169A to A111C A145C C150A C169G, the reverse-splicing fitness rises from 0.00829 to 0.00874.

First: A111C A145C C150A C169U
Second: A111C A145C C150G
The reverse-splicing fitness of the first is lower: 0.0128 for the first, 0.246 for the second.

Compared with A111C A145C C150A, A111C A120U A145U C150G C169G U176G is lower in reverse-splicing fitness: 0.15 for the first, 0.00233 for the second.

Going from A111C A120U A145U C150G C169G U176A to A111C A120U A145U C150G C169G U176C, the reverse-splicing fitness rises from 0.00267 to 0.00291.

First: A111C A120U A145C C150U C169U U176A
Second: A111C A120U A145C C150U C169U U176G
The reverse-splicing fitness of the first is higher: 0.00478 for the first, 0.00251 for the second.

Going from A111C A120U A145C C150U C169U U176C to A111C A120G C150U U176G, the reverse-splicing fitness rises from 0.00414 to 0.00599.

Going from A111C A120G C150U U176C to A111C A120G C150U U176A, the reverse-splicing fitness falls from 0.0344 to 0.0245.

Going from A111C A120U C150U C169A U176C to A111C A120U C150U C169A U176G, the reverse-splicing fitness falls from 0.00309 to 0.00204.

First: A111C A120U C150U C169A U176A
Second: A111C A120U A145G C150A U176A
The reverse-splicing fitness of the first is lower: 0.00394 for the first, 0.046 for the second.

Going from A111C A120U A145G C150A U176G to A111C A120U A145G C150A U176C, the reverse-splicing fitness rises from 0.0111 to 0.0554.

First: A111C A120U A145G U176A
Second: A111C A120U A145G U176G
The reverse-splicing fitness of the first is higher: 0.221 for the first, 0.0786 for the second.

Compared with A111C A120U A145G U176C, A111C A120U C150A C169U is lower in reverse-splicing fitness: 0.277 for the first, 0.00953 for the second.

First: A111C A120U C150A C169G
Second: A111C A120U C150A C169A
The reverse-splicing fitness of the first is higher: 0.00691 for the first, 0.00557 for the second.

Compared with A111C A120G C150U C169A U176C, A111C A120G C150U C169A U176A is lower in reverse-splicing fitness: 0.0197 for the first, 0.0176 for the second.

Going from A111C A120G C150U C169A U176G to A111C A120U A145G C150G C169U U176A, the reverse-splicing fitness rises from 0.00513 to 0.00885.

Compared with A111C A120U A145G C150G C169U U176C, A111C A120U A145G C150G C169U U176G is lower in reverse-splicing fitness: 0.00769 for the first, 0.00436 for the second.

First: A111C A120U A145C C150A C169U U176C
Second: A111C A120U A145C C150A C169U U176G
The reverse-splicing fitness of the first is higher: 0.00283 for the first, 0.00242 for the second.

First: A111C A120U A145C C150A C169U U176A
Second: A111C A120U A145U C150A C169A U176A
The reverse-splicing fitness of the first is higher: 0.00457 for the first, 0.00258 for the second.

Compared with A111C A120U A145U C150A C169A U176G, A111C A120U A145U C150A C169A U176C is higher in reverse-splicing fitness: 0.00209 for the first, 0.00244 for the second.

First: A111C A120G C150G C169A U176G
Second: A111C A120G C150G C169A U176C
The reverse-splicing fitness of the first is lower: 0.00481 for the first, 0.0109 for the second.

Going from A111C A120G C150G C169A U176A to A111C A120U C150U U176A, the reverse-splicing fitness rises from 0.00971 to 0.145.

Compared with A111C A120U C150U U176C, A111C A120U C150U U176G is lower in reverse-splicing fitness: 0.194 for the first, 0.0367 for the second.

Compared with A111C A120G C150U C169U, A111C A120G C150U C169A is lower in reverse-splicing fitness: 0.0919 for the first, 0.0604 for the second.

For A111C A120G C150U C169G, the reverse-splicing fitness was 0.112.
